Molecular target: recombinant Clonorchis sinensis pyruvate kinase (Clonorchis sinensis)
Assay: native gel or EMSA + SEC; purified rCsPK on 8% native PAGE against marker proteins; gel filtration on a Sepharose 12 10/300 GL column (AKTA FPLC), 0.8 ml/min, 50 mM Tris-HCl, 100 mM KCl, pH 7.5; apparent Mr about 290 kDa against a subunit of about 58 kDa

Work on “recombinant Clonorchis sinensis pyruvate kinase (enzyme)” yielded a stoichiometry N of 5.

Reference: PMC5680780
